B1: CCHC-type zinc finger nucleic acid binding protein (Homo sapiens), P62633 (parent)
chain: MSSNECFKCGRSGHWARECPTGGGRGRGMRSRGRGGFTSDRGFQFVSSSLPDICYRCGESGHLAKDCDLQEDACYNCGRGGHIAKDCKEPKREREQCCYNCGKPGHLARDCDHADEQKCYSCGEFGHIQKDCTKVKCYRCGETGHVAINCSKTSEVNCYRCGESGHLARECTIEATA

Variants of: B1
Conditions: with anm1_rat Prmt1, Q63009
Chain of anm1_rat Prmt1, Q63009 (Q63009 whole entry, looked up): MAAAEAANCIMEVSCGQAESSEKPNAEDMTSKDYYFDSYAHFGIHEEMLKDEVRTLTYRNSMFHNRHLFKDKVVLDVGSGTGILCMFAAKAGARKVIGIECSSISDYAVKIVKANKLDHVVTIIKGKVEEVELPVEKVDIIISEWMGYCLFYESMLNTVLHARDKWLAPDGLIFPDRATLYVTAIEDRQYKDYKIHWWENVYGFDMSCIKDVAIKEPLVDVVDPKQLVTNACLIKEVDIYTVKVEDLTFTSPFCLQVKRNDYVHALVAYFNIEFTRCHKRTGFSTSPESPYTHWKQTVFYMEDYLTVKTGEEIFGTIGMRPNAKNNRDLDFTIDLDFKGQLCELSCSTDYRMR

Variant	effect of a mutation on the interaction
R25A;R27A	decreasing interaction
